What was measured:
Experiment in all cases: Kinase Profiling Assay
Assay type in all cases: biochemical
Details in all cases: 100 μM
cKit(D816H)(h) = cKit(D816H)(h) (Homo sapiens, UniProt P10721, D816H)
MST2(h) = target: T1, MST2(h) (Homo sapiens, UniProt Q13188)
T1 sequence (Q13188 1-491): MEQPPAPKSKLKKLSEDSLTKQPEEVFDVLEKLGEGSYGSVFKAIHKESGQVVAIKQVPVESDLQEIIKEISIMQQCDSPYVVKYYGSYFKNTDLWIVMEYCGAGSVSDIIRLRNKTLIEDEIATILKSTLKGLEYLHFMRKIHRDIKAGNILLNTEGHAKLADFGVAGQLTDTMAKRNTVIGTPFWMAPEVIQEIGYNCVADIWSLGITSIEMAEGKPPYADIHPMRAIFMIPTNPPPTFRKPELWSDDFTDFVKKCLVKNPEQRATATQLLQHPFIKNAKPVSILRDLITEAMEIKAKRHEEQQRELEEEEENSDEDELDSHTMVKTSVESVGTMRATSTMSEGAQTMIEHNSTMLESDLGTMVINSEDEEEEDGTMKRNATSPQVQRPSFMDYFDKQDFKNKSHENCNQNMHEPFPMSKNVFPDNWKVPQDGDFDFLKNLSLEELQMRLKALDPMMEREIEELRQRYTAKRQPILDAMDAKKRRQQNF

AMPKα1(h) = AMPKα1(h) (Homo sapiens, UniProt Q13131)
TSSK2(h) = target: T2, TSSK2(h) (Homo sapiens, UniProt Q96PF2)
T2 sequence (Q96PF2 1-358): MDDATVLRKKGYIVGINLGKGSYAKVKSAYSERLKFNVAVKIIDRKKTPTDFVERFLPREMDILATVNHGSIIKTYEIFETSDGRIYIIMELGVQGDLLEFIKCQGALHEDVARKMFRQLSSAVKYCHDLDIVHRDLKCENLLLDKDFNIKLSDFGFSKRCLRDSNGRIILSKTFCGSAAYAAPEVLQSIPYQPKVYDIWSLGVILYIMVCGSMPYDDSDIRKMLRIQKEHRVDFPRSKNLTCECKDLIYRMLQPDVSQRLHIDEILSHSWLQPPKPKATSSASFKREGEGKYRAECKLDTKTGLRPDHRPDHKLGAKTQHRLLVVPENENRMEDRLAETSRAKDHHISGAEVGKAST

DRAK1(h) = target: T3, DRAK1(h) (Homo sapiens, UniProt Q9UEE5)
T3 sequence (Q9UEE5 1-414): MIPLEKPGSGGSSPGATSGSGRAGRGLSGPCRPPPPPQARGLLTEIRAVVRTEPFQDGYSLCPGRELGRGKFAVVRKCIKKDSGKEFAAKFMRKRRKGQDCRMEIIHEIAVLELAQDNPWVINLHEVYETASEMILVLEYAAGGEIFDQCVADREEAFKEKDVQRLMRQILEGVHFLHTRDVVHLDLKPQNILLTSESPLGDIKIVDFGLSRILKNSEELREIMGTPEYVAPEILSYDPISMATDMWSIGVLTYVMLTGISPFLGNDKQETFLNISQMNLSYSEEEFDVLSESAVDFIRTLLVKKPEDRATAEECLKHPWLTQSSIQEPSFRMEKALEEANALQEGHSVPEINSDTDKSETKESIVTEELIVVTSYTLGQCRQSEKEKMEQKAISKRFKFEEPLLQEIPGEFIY

MAPK2(h) = MAPK2(h) (Homo sapiens, UniProt P28482)
SGK3(h) = target: T4, SGK3(h) (Homo sapiens, UniProt Q96BR1)
T4 sequence (Q96BR1 1-496): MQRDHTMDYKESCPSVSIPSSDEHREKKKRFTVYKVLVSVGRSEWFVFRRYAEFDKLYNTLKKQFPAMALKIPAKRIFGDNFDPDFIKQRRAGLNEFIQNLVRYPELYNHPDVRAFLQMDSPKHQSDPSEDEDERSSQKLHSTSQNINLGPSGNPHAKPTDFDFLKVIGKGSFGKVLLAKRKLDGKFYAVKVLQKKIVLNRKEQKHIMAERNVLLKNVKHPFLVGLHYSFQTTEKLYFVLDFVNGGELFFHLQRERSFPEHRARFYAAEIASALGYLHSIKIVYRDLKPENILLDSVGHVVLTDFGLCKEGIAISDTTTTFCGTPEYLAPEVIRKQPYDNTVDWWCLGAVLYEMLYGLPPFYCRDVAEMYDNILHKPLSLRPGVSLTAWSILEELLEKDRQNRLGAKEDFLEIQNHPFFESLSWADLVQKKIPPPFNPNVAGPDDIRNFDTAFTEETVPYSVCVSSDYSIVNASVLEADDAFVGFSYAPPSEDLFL

CLK3(h) = CLK3(h) (Homo sapiens, UniProt P49761)
JAK2(h) = JAK2(h) (Homo sapiens, UniProt O60674)
Abl(h) = Abl(h) (Homo sapiens, UniProt P00519)
CDK5/p25(h) = CDK5/p25(h) (Homo sapiens, UniProt Q00535)
Rsk2(h) = Rsk2(h) (Homo sapiens, UniProt P51812)
SRPK2(h) = SRPK2(h) (Homo sapiens, UniProt P78362)
EGFR(L858R)(h) = EGFR(L858R)(h) (Homo sapiens, UniProt P00533, L858R)

Chain of Rsk2(h) (P51812 whole entry): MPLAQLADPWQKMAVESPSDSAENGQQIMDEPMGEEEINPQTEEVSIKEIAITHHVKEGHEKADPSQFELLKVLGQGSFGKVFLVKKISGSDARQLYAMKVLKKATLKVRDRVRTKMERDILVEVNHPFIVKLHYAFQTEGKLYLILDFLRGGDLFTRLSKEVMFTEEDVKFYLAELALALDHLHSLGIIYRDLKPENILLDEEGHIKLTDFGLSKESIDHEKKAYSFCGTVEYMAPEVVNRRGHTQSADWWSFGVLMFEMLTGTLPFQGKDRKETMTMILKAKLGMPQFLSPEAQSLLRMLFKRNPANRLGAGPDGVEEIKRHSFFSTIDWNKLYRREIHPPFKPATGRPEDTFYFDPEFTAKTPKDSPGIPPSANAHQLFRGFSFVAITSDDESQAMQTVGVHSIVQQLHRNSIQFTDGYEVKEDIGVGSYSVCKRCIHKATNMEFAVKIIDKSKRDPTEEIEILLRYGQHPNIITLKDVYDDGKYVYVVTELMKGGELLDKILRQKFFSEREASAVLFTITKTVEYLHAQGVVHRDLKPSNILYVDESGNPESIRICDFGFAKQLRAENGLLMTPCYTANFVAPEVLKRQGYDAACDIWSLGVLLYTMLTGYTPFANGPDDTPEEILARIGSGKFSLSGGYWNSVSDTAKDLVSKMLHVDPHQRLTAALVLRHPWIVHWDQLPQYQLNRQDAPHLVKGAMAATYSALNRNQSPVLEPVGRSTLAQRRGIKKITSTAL
Chain of CLK3(h) (P49761 whole entry): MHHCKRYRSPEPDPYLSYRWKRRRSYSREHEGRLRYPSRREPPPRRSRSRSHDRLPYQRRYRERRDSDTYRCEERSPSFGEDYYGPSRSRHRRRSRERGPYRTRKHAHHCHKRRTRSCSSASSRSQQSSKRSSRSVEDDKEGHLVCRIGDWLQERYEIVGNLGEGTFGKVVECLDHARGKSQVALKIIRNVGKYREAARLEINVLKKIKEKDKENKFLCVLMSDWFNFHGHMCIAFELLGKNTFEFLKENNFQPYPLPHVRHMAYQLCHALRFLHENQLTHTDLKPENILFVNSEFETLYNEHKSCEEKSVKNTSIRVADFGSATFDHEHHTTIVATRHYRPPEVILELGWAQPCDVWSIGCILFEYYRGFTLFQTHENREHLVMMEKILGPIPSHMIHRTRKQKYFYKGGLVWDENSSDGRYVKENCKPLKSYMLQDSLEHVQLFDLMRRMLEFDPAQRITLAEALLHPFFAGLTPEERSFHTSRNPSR
Chain of AMPKα1(h) (Q13131 whole entry): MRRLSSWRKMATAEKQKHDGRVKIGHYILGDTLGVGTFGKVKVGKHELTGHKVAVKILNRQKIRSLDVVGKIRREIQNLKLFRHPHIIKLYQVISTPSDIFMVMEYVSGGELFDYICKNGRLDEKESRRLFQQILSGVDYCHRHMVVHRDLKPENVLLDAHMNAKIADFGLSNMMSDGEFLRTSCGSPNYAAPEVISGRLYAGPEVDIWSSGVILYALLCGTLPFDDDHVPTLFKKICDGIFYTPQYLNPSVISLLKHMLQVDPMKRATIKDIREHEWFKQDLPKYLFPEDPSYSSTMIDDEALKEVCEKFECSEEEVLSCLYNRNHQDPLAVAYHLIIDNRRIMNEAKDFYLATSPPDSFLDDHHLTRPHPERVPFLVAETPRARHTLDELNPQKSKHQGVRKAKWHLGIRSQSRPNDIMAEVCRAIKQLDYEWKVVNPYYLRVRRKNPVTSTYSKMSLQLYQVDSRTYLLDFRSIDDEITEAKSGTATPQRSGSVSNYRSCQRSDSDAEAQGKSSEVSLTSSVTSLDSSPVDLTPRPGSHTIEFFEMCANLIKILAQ
Chain of AMPKα1(h) (Q9Y478 whole entry partner): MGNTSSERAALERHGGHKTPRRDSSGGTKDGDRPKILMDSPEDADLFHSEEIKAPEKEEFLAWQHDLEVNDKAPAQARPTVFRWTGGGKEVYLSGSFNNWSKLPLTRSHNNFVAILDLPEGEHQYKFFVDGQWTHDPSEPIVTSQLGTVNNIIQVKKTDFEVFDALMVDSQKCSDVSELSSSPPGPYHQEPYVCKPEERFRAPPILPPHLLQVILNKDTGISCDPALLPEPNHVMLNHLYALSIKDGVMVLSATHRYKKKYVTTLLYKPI
Chain of AMPKα1(h) (P54619 whole entry partner): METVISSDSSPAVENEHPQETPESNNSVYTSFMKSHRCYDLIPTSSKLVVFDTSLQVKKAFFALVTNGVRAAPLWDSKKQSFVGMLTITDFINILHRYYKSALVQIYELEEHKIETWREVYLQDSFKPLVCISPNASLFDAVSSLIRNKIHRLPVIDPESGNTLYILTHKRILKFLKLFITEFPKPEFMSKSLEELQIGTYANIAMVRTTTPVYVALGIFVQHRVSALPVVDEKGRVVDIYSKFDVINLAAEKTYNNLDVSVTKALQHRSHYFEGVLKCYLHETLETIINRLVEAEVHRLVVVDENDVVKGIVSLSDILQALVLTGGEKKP
Chain of Abl(h) (P00519 whole entry): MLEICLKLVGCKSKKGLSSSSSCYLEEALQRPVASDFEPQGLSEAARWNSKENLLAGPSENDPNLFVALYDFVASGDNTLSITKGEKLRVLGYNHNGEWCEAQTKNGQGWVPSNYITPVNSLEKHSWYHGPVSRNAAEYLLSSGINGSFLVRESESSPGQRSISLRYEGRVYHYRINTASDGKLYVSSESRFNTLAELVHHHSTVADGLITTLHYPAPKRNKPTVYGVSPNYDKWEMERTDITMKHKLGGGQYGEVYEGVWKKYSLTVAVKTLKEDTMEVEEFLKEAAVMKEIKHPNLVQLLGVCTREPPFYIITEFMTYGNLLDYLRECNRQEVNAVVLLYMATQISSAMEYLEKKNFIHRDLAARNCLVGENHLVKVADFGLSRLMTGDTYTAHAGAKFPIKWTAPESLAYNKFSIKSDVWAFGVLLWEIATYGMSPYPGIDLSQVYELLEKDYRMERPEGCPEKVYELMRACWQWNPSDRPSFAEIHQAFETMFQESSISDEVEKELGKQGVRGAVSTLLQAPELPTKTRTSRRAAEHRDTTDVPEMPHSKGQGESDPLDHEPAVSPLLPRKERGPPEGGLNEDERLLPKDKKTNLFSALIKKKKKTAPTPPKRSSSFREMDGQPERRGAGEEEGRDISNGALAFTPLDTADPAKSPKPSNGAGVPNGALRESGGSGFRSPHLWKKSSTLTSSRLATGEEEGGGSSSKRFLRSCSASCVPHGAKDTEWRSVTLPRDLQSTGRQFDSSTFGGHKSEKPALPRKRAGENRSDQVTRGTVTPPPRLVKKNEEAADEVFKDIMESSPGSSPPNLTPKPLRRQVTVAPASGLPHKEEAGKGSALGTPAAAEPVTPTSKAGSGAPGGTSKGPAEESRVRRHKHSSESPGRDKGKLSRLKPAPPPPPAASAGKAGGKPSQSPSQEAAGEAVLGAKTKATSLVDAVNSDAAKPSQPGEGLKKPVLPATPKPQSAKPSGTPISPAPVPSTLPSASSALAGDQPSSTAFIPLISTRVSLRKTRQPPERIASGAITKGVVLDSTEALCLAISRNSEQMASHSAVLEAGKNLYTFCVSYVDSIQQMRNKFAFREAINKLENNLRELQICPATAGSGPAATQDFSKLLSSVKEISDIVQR
Chain of JAK2(h) (O60674 whole entry): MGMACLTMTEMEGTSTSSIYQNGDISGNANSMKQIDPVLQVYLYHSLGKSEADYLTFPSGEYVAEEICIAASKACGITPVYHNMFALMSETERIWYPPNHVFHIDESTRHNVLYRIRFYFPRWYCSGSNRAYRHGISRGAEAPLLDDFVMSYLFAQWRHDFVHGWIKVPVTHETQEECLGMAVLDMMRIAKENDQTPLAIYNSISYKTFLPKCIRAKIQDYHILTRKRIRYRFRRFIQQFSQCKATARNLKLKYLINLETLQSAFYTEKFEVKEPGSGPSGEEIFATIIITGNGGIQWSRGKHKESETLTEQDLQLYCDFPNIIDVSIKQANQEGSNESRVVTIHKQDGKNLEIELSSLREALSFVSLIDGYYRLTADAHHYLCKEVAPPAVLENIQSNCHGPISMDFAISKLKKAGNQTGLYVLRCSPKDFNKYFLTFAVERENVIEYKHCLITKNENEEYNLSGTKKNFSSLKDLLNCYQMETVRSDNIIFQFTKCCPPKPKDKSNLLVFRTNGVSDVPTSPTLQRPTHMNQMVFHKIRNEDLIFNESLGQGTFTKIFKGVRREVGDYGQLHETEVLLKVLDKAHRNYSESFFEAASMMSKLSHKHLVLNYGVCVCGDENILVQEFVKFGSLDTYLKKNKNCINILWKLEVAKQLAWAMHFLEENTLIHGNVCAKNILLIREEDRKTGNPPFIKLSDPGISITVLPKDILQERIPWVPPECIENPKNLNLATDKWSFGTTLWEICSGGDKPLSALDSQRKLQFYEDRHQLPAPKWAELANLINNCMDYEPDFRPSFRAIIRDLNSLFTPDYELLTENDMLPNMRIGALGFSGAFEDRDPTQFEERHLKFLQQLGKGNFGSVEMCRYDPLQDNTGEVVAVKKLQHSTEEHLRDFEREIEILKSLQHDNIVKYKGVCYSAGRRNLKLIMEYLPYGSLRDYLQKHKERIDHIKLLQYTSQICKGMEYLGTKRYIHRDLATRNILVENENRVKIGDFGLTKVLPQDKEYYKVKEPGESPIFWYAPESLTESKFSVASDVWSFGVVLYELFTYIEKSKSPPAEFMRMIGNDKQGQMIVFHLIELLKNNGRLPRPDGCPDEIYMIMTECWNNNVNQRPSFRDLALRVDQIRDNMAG
Chain of MAPK2(h) (P28482 whole entry): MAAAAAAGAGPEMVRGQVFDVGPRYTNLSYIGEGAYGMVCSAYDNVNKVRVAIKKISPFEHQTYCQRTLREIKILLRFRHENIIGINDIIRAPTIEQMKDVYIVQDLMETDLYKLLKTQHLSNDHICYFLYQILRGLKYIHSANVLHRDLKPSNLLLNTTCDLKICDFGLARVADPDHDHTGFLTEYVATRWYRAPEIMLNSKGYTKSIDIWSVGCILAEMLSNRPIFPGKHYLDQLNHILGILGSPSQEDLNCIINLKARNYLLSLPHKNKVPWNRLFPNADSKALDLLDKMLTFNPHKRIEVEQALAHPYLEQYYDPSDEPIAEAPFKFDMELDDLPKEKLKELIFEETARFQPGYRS

FAKLAARLYRKALARQLGVAA [MMI-0300]
% activity (cKit(D816H)(h)): 126% | % activity (MST2(h)): 19% | % activity (AMPKα1(h)): 71% | % activity (TSSK2(h)): 98% | % activity (DRAK1(h)): 14% | % activity (MAPK2(h)): 98% | % activity (SGK3(h)): 10% | % activity (CLK3(h)): 61% | % activity (JAK2(h)): 133% | % activity (Abl(h)): 69% | % activity (CDK5/p25(h)): 89% | % activity (Rsk2(h)): 51%

HRRIKAWLKKIKALARQLGVAA [MMI-0500]
% activity (cKit(D816H)(h)): 194% | % activity (MST2(h)): 2% | % activity (AMPKα1(h)): 35% | % activity (TSSK2(h)): 92% | % activity (DRAK1(h)): 8% | % activity (MAPK2(h)): 60% | % activity (SGK3(h)): −3% | % activity (CLK3(h)): 76% | % activity (SRPK2(h)): 80% | % activity (JAK2(h)): 49% | % activity (Abl(h)): 16% | % activity (EGFR(L858R)(h)): 26% | % activity (CDK5/p25(h)): 66% | % activity (Rsk2(h)): 14%

KAFAKLAARLYRKALARQLGVAA [MMI-0400]
% activity (cKit(D816H)(h)): 143% | % activity (MST2(h)): 11% | % activity (AMPKα1(h)): 87% | % activity (TSSK2(h)): 94% | % activity (DRAK1(h)): 14% | % activity (MAPK2(h)): 93% | % activity (SGK3(h)): 8% | % activity (CLK3(h)): 84% | % activity (SRPK2(h)): 97% | % activity (Abl(h)): 84% | % activity (EGFR(L858R)(h)): 52% | % activity (CDK5/p25(h)): 92% | % activity (Rsk2(h)): 38%

YARAAARQARAKALNRQLGVA [MMI-0200]
% activity (AMPKα1(h)): 108% | % activity (TSSK2(h)): 91% | % activity (DRAK1(h)): 34% | % activity (SGK3(h)): 58% | % activity (CLK3(h)): 76% | % activity (SRPK2(h)): 100% | % activity (JAK2(h)): 131% | % activity (EGFR(L858R)(h)): 120% | % activity (CDK5/p25(h)): 97% | % activity (Rsk2(h)): 101%
